From the Human Domainome abundance scans (Beltran et al. 2025)
± gives the uncertainty stated by the source.

B1: Peroxisome proliferator-activated receptor delta, residues 71 to 145; numbered along this chain, Q03181 (parent)
chain: NMECRVCGDKASGFHYGVHACEGCKGFFRRTIRMKLEYEKCERSCKIQKKNRNKCQYCRFQKCLALGMSHNAIRF

Variants of: B1
Experiment: abundance fitness (aPCA) (normalised: wild type 0, dead -1); higher = more abundant; growth selection in yeast, the domain comes from the species named
Conditions: Homo sapiens

Variant	abundance fitness
C4E	-0.571 ± 0.12
C4S	-0.669 ± 0.082
C4R	-0.558 ± 0.07
C4W	-0.747 ± 0.13
C4T	-0.962 ± 0.15
C4N	-0.738 ± 0.2
C4K	-0.775 ± 0.13
C4P	-1.07 ± 0.18
C4Y	-0.693 ± 0.14
C4I	-1.14 ± 0.4
C4G	-0.911 ± 0.12
C4M	-0.461 ± 0.11
C4F	-0.675 ± 0.2
C4H	-0.576 ± 0.17
C4Q	-0.738 ± 0.12
F14W	-0.118 ± 0.052
F14H	-0.098 ± 0.077
F14L	0.085 ± 0.034
F14P	-0.14 ± 0.051
F14E	0.066 ± 0.042
F14C	-0.076 ± 0.059
F14R	-0.138 ± 0.035
F14K	0.006 ± 0.054
F14Q	-0.064 ± 0.056

Variant	abundance fitness
F14D	0.014 ± 0.052
F14M	-0.059 ± 0.053
F14V	0.018 ± 0.037
F14T	0.066 ± 0.042
F14I	0.002 ± 0.064
F14A	-0.028 ± 0.039
F14G	-0.299 ± 0.039
F14N	-0.066 ± 0.067
F14Y	0.038 ± 0.063
C7G	-0.504 ± 0.06
C7S	-0.575 ± 0.067
C7W	-0.895 ± 0.15
C7A	-0.66 ± 0.11
C7L	-0.782 ± 0.089
C7E	-0.656 ± 0.099
C7Y	-0.673 ± 0.14
C7T	-0.862 ± 0.13
C7I	-0.877 ± 0.22
C7F	-0.867 ± 0.25
C7D	-0.952 ± 0.34
C7M	-0.984 ± 0.18
C7R	-0.793 ± 0.077
C7Q	-0.584 ± 0.11
C7H	-0.21 ± 0.14

Variant	abundance fitness
C7N	-0.412 ± 0.11
C7K	-0.63 ± 0.13
C7P	-0.759 ± 0.14
V6Q	-0.968 ± 0.2
V6L	-0.614 ± 0.067
V6T	-1.18 ± 0.19
V6R	-0.839 ± 0.072
V6P	-0.923 ± 0.12
V6C	-0.873 ± 0.19
V6H	-0.914 ± 0.32
V6M	-0.674 ± 0.12
V6D	-0.823 ± 0.19
V6K	-0.745 ± 0.14
V6W	-0.934 ± 0.14
V6N	-0.624 ± 0.17
V6A	-0.619 ± 0.07
V6E	-0.561 ± 0.11
V6F	-0.547 ± 0.14
V6I	0.059 ± 0.069
V6Y	-0.748 ± 0.17
V6G	-0.841 ± 0.079
V6S	-1.07 ± 0.14
G13Q	-0.322 ± 0.077
G13S	-0.212 ± 0.048

Variant	abundance fitness
G13V	-0.353 ± 0.049
G13N	-0.01 ± 0.069
G13A	-0.239 ± 0.044
G13H	-0.545 ± 0.12
G13W	-0.708 ± 0.097
G13M	-0.431 ± 0.079
G13E	-0.274 ± 0.052
G13D	-0.103 ± 0.056
G13Y	-0.385 ± 0.096
G13R	-0.427 ± 0.045
G13P	-0.363 ± 0.079
G13I	-0.324 ± 0.13
G13F	-0.838 ± 0.17
G13C	-0.596 ± 0.12
G13L	-0.48 ± 0.055
G8H	-0.064 ± 0.087
G8E	-0.32 ± 0.061
G8P	-0.891 ± 0.11
G8V	-0.899 ± 0.093
G8S	-0.362 ± 0.045
G8A	-0.382 ± 0.052
G8L	-0.598 ± 0.07
G8M	-0.782 ± 0.12
G8W	-0.812 ± 0.13

Variant	abundance fitness
G8T	-0.447 ± 0.068
G8F	-0.779 ± 0.23
G8C	-0.582 ± 0.095
G8D	-0.434 ± 0.1
G8I	-0.687 ± 0.34
G8Q	-0.253 ± 0.064
G8Y	-0.438 ± 0.15
G8K	-0.563 ± 0.1
D9Q	-0.374 ± 0.077
D9W	-0.618 ± 0.097
D9S	-0.178 ± 0.045
D9F	-0.283 ± 0.082
D9C	-0.305 ± 0.075
D9A	-0.065 ± 0.043
D9N	-0.152 ± 0.064
D9M	-0.436 ± 0.086
D9R	-0.348 ± 0.045
D9H	-0.668 ± 0.2
D9G	-0.198 ± 0.037
D9K	-0.548 ± 0.12
D9E	-0.154 ± 0.044
D9I	-0.345 ± 0.12
D9L	-0.63 ± 0.072
D9V	-0.331 ± 0.048

Variant	abundance fitness
D9T	-0.327 ± 0.067
E3L	-0.106 ± 0.041
E3H	-0.027 ± 0.077
E3P	-0.353 ± 0.058
E3Q	-0.059 ± 0.048
E3R	-0.327 ± 0.041
E3A	-0.204 ± 0.047
E3N	-0.079 ± 0.068
E3T	-0.102 ± 0.047
E3V	-0.178 ± 0.045
E3I	-0.044 ± 0.081
E3K	-0.089 ± 0.057
E3W	-0.176 ± 0.054
E3S	-0.033 ± 0.041
E3F	-0.086 ± 0.08
E3C	-0.278 ± 0.076
E3Y	-0.182 ± 0.086
E3D	0.059 ± 0.064
S12I	-0.121 ± 0.11
S12W	-0.579 ± 0.079
S12C	-0.103 ± 0.069
S12L	-0.395 ± 0.059
S12K	-0.248 ± 0.06
S12A	-0.119 ± 0.042

Variant	abundance fitness
S12P	-0.39 ± 0.07
S12V	-0.222 ± 0.045
S12T	-0.06 ± 0.048
S12R	-0.351 ± 0.046
S12N	-0.098 ± 0.067
S12Y	-0.138 ± 0.072
S12F	-0.115 ± 0.086
S12H	-0.238 ± 0.092
S12E	-0.123 ± 0.052
S12Q	-0.115 ± 0.057
S12G	-0.274 ± 0.046
M2F	-0.432 ± 0.39
M2D	-0.056 ± 0.079
M2W	-0.527 ± 0.098
M2A	-0.526 ± 0.091
M2H	-0.276 ± 0.12
M2V	-0.155 ± 0.051
M2K	-0.249 ± 0.082
M2S	-0.305 ± 0.056
M2R	-0.417 ± 0.048
M2C	-0.064 ± 0.08
M2Y	-0.113 ± 0.1
M2N	-0.21 ± 0.09
